Measured values as given in patent publication US7960513B2, “Antibody against a human ADAM protease” (Monash University, priority 2004, dated 2011).
Numbering of substitutions follows the chain as printed. Blank lines part the entries; values can stand above or below the molecule they belong to.

What was measured:
EphA3/HEK293 cells = assay: Ephrin-A5 cleavage and internalisation in EphA3-expressing cells treated with clustered ephrin-A5-Fc / ephrinA5-Fc beads; assay type: cell-based, human
Description: FIG. 1. EphA3-ADAM10 association, ephrin-A5 cleavage and ephrin internalisation. • A. Association of ADAM10 with EphA3 in LiBr melanoma cells and parental or stably transfected EphA3/HEK293 cells. The cells were treated with clustered ephrin-Fc (A5 or A2) or were left untreated (−) prior to lysis. Anti-EphA3 immunoprecipitates from lysates were analysed by Western blot for endogenous ADAM10 (“p” and “m” indicate the pro (unprocessed) and mature (processed) forms of ADAM10). Aliquots from immunoprecipitates were blotted for EphA3 levels to indicate loading (lower panel). […] EphA3/HEK293 or ephrin-A5/HEK293 cells were transfected to express HA-tagged ADAM10ΔPM. Western Blots of anti-HA immuno-precipitates were analysed with antibodies against ephrin-A5 and EphA3, parallel control samples with anti-ADAM10 antibodies. Lysates of ephrin-A5/HEK 293 cells were also extracted with Protein-A Sepharose-bound EphA3 Fc and analysed with anti-ephrin-A5 antibodies. • C. […] Pooled cell lysates and supernatants were pre-cleared with excess Protein-A Sepharose, cleaved ephrin-A5 was extracted using EphA3-Fc coupled to Protein-A Sepharose and analysed by anti-ephrin-A5 immuno-blot. Recombinant, monomeric, single-chain ephrin-A5 (Himanen et al., 2004, Nat Neurosci. 7 501-9; ephrin std) was analysed in parallel. • D. Ephrin-A5 cleavage and internalisation are inhibited by dominant-negative ADAM10. […]

EphA3/ephrin-A5 complex = molecular target: T1, EphA3/ephrin-A5 complex (Homo sapiens, UniProt P29320+P52803); assay: In vitro binding (Protein-A pull-down) assay; conditions: EphA3-Fc plus untagged ephrin-A5
T1 construct: incubated with Fc-tagged ectodomains of Eph-A3, EphB2, EphB4 and ephrin-A2, ephrin-A5, ephrin-B2 (R&D systems)
T1 sequence (P29320 21-541 limits assumed): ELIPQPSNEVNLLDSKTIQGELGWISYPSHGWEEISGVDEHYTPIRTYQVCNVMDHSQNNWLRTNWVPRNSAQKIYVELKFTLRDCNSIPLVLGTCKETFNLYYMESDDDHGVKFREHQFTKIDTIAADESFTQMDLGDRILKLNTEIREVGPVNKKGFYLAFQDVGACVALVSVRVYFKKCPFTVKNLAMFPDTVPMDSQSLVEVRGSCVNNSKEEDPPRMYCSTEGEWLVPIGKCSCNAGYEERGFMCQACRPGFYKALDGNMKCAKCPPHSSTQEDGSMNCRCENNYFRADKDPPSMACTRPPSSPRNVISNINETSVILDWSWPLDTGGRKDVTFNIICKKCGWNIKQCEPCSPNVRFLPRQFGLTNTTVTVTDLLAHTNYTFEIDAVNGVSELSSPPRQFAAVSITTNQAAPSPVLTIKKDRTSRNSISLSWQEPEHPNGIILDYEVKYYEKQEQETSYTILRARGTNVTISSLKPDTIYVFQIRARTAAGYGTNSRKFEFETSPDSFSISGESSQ
T1 sequence (P52803 21-203 limits assumed): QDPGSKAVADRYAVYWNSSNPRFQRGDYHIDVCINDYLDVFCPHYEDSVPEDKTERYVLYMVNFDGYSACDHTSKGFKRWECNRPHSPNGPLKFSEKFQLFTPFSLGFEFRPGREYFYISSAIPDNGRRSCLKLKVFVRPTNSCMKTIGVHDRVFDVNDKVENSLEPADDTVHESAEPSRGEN
Description: Pull-down experiments were done as follows: ADAM10D+C, ADAM17D+C w.t. or the alanine mutants (˜15 μg) were incubated with Fc-tagged ectodomains of Eph-A3, EphB2, EphB4 and ephrin-A2, ephrin-A5, ephrin-B2 (R&D systems) at 4° C. for 30 min in 500 μL of binding buffer containing 10 mM HEPES (pH 7.4), 150 mM NaCl and 0.05% of Triton X-100. To test binding to the preformed EphA3/ephrin-A5 complex, 5 μg of the untagged ephrin-A5 was incubated with Fc tagged EphA3 for 30 min at 4° C. followed by the addition of ADAM10. The proteins were incubated for an additional 30 min., when Protein-A-Sepharose (Amersham) beads were added to the reaction mixture and shaken at 4° C. for 2h. The beads were then harvested by centrifugation, washed once with 500 μl of binding buffer and the bound proteins were separated on a 10-20% gradient polyacrylamide gel. The binding of the individual ADAM domains was carried out likewise using 15 μg of the disintegrin and 8 μg of the cysteine-rich domain.

[1] = molecular target: T2, EphA3/ephrin-A5 complex on cells (cell-surface EphA3 with pre-clustered ephrin-A5-Fc), P29320
T2 chain 1: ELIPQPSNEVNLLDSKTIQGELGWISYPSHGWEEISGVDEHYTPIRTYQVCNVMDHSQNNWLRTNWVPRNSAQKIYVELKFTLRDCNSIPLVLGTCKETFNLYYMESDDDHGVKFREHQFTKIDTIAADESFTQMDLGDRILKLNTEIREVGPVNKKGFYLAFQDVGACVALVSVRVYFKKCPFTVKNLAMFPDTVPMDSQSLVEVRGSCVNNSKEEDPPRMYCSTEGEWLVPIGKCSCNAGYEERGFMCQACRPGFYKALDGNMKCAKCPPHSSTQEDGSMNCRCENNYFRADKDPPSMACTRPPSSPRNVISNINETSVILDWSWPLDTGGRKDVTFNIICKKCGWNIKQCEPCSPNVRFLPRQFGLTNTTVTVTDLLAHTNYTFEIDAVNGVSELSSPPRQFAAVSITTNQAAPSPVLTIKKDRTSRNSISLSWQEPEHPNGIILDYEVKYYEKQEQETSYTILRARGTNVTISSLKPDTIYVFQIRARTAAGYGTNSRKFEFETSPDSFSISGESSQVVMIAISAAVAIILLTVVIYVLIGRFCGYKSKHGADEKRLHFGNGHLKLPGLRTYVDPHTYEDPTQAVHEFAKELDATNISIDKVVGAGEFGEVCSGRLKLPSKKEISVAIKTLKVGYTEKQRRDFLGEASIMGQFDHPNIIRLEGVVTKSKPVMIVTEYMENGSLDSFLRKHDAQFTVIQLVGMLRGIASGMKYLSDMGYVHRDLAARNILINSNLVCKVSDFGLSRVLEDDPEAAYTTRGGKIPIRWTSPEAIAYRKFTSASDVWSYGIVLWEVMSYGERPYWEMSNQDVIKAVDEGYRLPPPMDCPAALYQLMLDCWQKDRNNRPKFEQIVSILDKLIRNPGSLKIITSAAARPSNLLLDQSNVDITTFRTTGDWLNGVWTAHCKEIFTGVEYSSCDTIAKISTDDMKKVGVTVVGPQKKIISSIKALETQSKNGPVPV
T2 chain 2: T1 sequence (P52803 21-203 limits assumed)

Molecule: CC(C)C[C@H](CC(=O)NO)C(=O)N[C@@H](Cc1ccc2ccccc2c1)C(=O)N[C@@H](C)C(=O)NCCN [TAPI]
ephrin-A5 cleavage and internalisation (EphA3/HEK293 cells; pretreated with 50 μM TAPI1 (1h)): inhibited

Molecule: c1cnc2c(c1)ccc1cccnc12 [1,10-O-Phenanthroline]
ephrin-A5 cleavage and internalisation (EphA3/HEK293 cells; pretreated with 1 mM OPN (4h)): inhibited

binding to EphA3/ephrin-A5 complex (EphA3/ephrin-A5 complex): does not bind
B1: ADAM10D+C[EEE-A]: ADAM10D+C with Glu573, Glu578 and Glu579 mutated to alanines (protein)
chain: SGQPICGNGMVEQGEECDCGYSDQCKDECCYDANQPEGKKCKLKPGKQCSPSQGPCCTAHCAFKSKTEKCRDDSDCAKEGICNGITALCPASDPKPNFTDCNRHTQVCINGQCAGSICAKHGLAACTCASSDGKDDKELCHVCCMKKMEPSTCASTGSVQWNKYFLGRTITLQPGSPCNDFRGYCDVFMRCR

binding to EphA3/ephrin-A5 complex (EphA3/ephrin-A5 complex): retains wild-type binding affinity
B2: ADAM10D+C[RDD-A]: ADAM10D+C with Ala substitutions of Arg525, Asp526, Asp527 (protein)
chain: B1 chain with R71A, D72A, D73A, A119E, A124E, A125E

B3: full-length ADAM10[EEE-A] (protein)
chain: TTVAEKNTCQLYIQTDHLFFKYYGTREAVIAQISSHVKAIDTIYQTTDFSGIRNISFMVKRIRINTTADEKDPTNPFRFPNIGVEKFLELNSEQNHDDYCLAYVFTDRDFDDGVLGLAWVGAPSGSSGGICEKSKLYSDGKKKSLNTGIITVQNYGSHVPPKVSHITFAHEVGHNFGSPHDSGTECTPGESKNLGQKENGNYIMYARATSGDKLNNNKFSLCSIRNISQVLEKKRNNCFVESGQPICGNGMVEQGEECDCGYSDQCKDECCYDANQPEGKKCKLKPGKQCSPSQGPCCTAHCAFKSKTEKCRDDSDCAKEGICNGITALCPASDPKPNFTDCNRHTQVCINGQCAGSICAKHGLAACTCASSDGKDDKELCHVCCMKKMEPSTCASTGSVQWNKYFLGRTITLQPGSPCNDFRGYCDVFMRCRLVDADGPLARLKKAIFSPELYENIAEWIVAYWWAVLLMGIALIMLMAGFIKICSVHTPSSNPKLPPPKPLPGTLKRRRPPQPIQQPQRQRPRESYQMGHMRR
ephrin-A5 cleavage (cleaved ephrin-A5 recovered with EphA3-Fc, anti-ephrin-A5 Western blot) [1]: overexpression of mutant ADAM10 with Ala or Lys substitutions of the three Glu residues or lacking the protease domain, effectively inhibited ephrin-A5 cleavage

B4: full-length ADAM10 with lysine (3K) substitutions of Glu573, 578, 579 (protein)
chain: B3 chain with A360K, A365K, A366K
ephrin-A5 cleavage (cleaved ephrin-A5 recovered with EphA3-Fc, anti-ephrin-A5 Western blot) [1]: overexpression of mutant ADAM10 with Ala or Lys substitutions of the three Glu residues or lacking the protease domain, effectively inhibited ephrin-A5 cleavage
